Six molecules from US20240117034A1 (SHANGHAI JEMINCARE PHARMACEUTICAL, published 2024) can be followed below.

As usually defined, the Kd is the free concentration of one partner at which half of the binding sites on the other are occupied at equilibrium, for simple one-to-one binding. Low values mean higher affinity, high ones lower affinity. Usually koff stands for the rate constant with which the complex falls apart. A low value points to slow dissociation. A word on the kon: it is a measure of how fast the partners come together. Lower therefore signals slow association. One may read the EC50 as the concentration that produces a half-maximal response.

Test [1] has as its target human GARP/human latent TGF-β1 complex on recombinant cells (293F-hGARP/hTGF-β1, CHOK1-hGARP/hTGF-β1) (human) (UniProt Q14392). The test can be described thus: flow cytometry on 293F-hGARP/hTGF-β1 clone 2D3. Background: In flow cytometry, cells or beads pass a laser one at a time.
For test [2] the target is unchanged. The test can be described thus: flow cytometry on 293F-hGARP/hTGF-β1 clone 2F4.
Test [3] addresses T1, hGARP/hTGF-β1 complex (Kactus Biosystems, Cat. No.: GAR-HM4TG) (human, UniProt Q14392 20-627; P01137 30-390, limits assumed).
T1 construct: Bought soluble recombinant complex; also called antigen (hGARP/hTGF-β1 complex)
The test can be described thus: Octet RED96e (BLI), antibody captured on AHC sensor, complex in solution from 100 nM, 1:1 model. A general note: In BLI a coated tip is dipped into the sample, and binding shifts an interference pattern.

For test [4], the target named is T2, human GARP/human latent TGF-β1 complex on recombinant cells (293F-hGARP/hTGF-β1, CHOK1-hGARP/hTGF-β1) (human, UniProt Q14392 20-662; P01137 30-390).
T2 construct: whole, on cells; Both full-length proteins were co-expressed on 293F or CHOK1 cells; The host cell of each assay is named in the assay field; also called 293F-hGARP/hTGF-β1 complex; clones 2F4 and 2D3
T2 sequence (Q14392 20-662, chain 1 of 2): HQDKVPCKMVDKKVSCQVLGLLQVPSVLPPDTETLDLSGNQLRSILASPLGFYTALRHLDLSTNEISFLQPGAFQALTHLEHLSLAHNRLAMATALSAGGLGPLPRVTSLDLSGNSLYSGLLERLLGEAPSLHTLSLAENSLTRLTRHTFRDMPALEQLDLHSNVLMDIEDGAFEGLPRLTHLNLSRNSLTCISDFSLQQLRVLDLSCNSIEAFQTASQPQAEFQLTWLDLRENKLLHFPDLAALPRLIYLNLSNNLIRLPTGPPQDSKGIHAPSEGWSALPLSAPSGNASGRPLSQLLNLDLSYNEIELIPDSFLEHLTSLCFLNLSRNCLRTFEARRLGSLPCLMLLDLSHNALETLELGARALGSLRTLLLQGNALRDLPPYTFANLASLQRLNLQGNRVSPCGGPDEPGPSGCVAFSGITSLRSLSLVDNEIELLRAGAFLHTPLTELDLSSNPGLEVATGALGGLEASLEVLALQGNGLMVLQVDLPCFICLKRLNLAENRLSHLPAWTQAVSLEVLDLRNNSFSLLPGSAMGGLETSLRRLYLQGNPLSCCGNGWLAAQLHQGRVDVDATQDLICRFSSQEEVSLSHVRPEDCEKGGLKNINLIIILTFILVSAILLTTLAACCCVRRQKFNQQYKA
T2 sequence (P01137 30-390, chain 2 of 2): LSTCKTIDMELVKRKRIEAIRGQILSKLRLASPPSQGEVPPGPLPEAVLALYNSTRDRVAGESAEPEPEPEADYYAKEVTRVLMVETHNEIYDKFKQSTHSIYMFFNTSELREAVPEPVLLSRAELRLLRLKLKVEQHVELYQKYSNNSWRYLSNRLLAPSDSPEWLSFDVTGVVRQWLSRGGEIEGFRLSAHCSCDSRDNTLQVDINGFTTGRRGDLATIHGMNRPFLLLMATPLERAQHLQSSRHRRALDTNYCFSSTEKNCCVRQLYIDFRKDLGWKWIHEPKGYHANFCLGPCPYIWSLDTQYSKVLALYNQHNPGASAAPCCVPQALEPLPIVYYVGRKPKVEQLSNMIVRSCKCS
The test can be described thus: flow cytometry titration on 293F-hGARP/hTGF-β1 cells, Alexa 488 anti-mouse IgG secondary. The method, then: The cells were counted and centrifuged at 300 g for 5 min, the supernatant was discarded, the cell pellet was resuspended and washed with 1×PBS, then centrifuged at 300 g for 5 min, the supernatant was discarded, and then the cell pellet was resuspended with FACS buffer containing 2% FBS to adjust to a density of 1e6 cells/mL. The cells were plated at a density of 1e5 cells/well for a constant volume of 100 μL/well at 4° C. for 0.5 h, and centrifuged at 300 g for 5 min, and the supernatant was discarded. The antibody to be tested was prepared in FACS buffer containing 2% FBS with a starting concentration of 15 µg/mL, followed by serial dilution with a dilution factor of 1:5 in a total of 7 gradients, and then was added for a constant volume of 100 μL/well, with 0 μg/mL as a control, the dilution was pipetted and mixed thoroughly at 4° C. for 1 h, and centrifuged at 300 g for 5 min, and the supernatant was discarded. 1×PBS was added for a constant volume of 200 μL/well to resuspend and mix the cell pellet thoroughly, followed by centrifugation at 300 g for 5 min, the supernatant was discarded, and the steps were repeated twice. […] The cell pellet was resuspended in FACS buffer containing 2% FBS to read on a FACS machine. […]

Test [5] concerns the target T2, human GARP/human latent TGF-β1 complex …. The test can be described thus: flow cytometry competition on 293F-hGARP/hTGF-β1 cells; the competitor is Alexa 488-labelled MHG8 at a fixed concentration; falling curve.

T1 sequence (Q14392 20-627 limits assumed, chain 1 of 2): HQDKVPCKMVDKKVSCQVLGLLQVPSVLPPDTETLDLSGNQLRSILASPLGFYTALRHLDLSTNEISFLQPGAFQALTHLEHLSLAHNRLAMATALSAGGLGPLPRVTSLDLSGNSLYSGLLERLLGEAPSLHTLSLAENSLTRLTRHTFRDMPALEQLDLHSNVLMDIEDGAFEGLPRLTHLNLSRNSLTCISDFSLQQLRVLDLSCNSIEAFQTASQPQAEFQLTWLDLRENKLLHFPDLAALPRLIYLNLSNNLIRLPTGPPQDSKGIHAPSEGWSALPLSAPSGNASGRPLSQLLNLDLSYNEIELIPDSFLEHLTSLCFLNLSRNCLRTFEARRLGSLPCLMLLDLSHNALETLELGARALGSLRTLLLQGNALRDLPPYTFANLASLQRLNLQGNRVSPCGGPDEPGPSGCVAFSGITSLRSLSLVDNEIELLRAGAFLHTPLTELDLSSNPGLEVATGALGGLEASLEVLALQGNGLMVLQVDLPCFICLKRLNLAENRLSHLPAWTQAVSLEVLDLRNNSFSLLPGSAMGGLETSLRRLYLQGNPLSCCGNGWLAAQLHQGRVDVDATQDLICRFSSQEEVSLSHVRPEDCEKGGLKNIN
T1 sequence (P01137 30-390 limits assumed, chain 2 of 2): as the sequence (P01137 30-390, chain 2 of 2) above
Sequence of human GARP/human latent TGF-β1 complex on recombinant cells (293F-hGARP/hTGF-β1, CHOK1-hGARP/hTGF-β1) (human) (Q14392 20-662, chain 1 of 2): as the sequence (Q14392 20-662, chain 1 of 2) above
Sequence of human GARP/human latent TGF-β1 complex on recombinant cells (293F-hGARP/hTGF-β1, CHOK1-hGARP/hTGF-β1) (human) (P01137 30-390, chain 2 of 2, further chain): as the sequence (P01137 30-390, chain 2 of 2) above

As for Isotype control-APC (antibody), the Mean maximum fluorescence intensity (MFI) in test [1] is 103 MFI; in test [2] it was 90 MFI.
Regarding Isotype control-FITC (antibody), the Mean maximum fluorescence intensity (MFI) in test [1] amounted to 103 MFI; in test [2] it was 101 MFI.
For “anti-human GARP antibody-FITC (Enzo life science, ALX-804-867FI-0100)”, the Mean maximum fluorescence intensity (MFI) amounted to 6960 MFI in test [1] and 8370 MFI in test [2].
On the same counts, the results for “anti-human TGF-β1 antibody, Anti-LAP (TGF-β1) Antibody-APC (R&D Systems, FAB2463A)” are 142000 MFI and 150000 MFI.

B1: MHG8 (anti-human GARP antibody) (antibody, V domains shown)
VH: QVQLKESGPGLVAPSQSLSITCTVSGFSLTGYGINWVRQPPGKGLEWLGMIWSDGSTDYNSVLTSRLRISKDNSNSQVFLKMNSLQVDDTARYYCARDRNYYDYDGAMDYWGQGTSVTVSS
VL: DIQVTQSSSYLSVSLGDRVTITCKASDHIKNWLAWYQQKPGIAPRLLVSGATSLEAGVPSRFSGSGSGKNFTLSITSLQTEDVATYYCQQYWSTPWTFGGGTTLEIR
In test [3], B1 returned a Kd of 0.205 nM, a koff of 2.85e-05 s⁻¹ and a kon of 139000 M⁻¹ s⁻¹. For the same molecule, the EC50 in test [4] came out at 0.12 µg/mL. Also, the EC50 in test [5] is 2.74 µg/mL.

B2: murine anti-human GARP monoclonal antibody 8H2D7B3 (antibody, V domains shown)
VH: QVQLQQSGAELVRPGSSVKLSCKASGYTLSNYWMYWVKQRPIQGLEWIGSIAPSDSETHYNQKFKDRATVTVDKSSRIVYMQLSSLTSEDSAVYFCARGGFGYGSSHWYFDVWGTGTTVTVSS
VL: DIQMTQSSAYLSVSLGGRVTITCKASDHINKWLAWYQQKPGNAPRLLISGATSLETGIPSRFSGSGSGKDYTLSITGLQTEDVATYYCQQYWTTPYTFGGGTKLEIK
notes: Antibody purified from the hybridoma; It was detected with anti-mouse IgG, and mouse IgG1 served as isotype control; also called murine antibody 8H2D7B3
As to B2, the results for the EC50 in test [4] and in test [5] were 0.108 µg/mL and 1.61 µg/mL, respectively.
